The values that follow come from publication PMC7710122.

The nature of data set [1]: western blot of β1 in purified sEVs. To be noted: glycan changed form; control: vec-sEVs.
Data set [2] in a line: western blot of cell lysates. To be noted: glycan changed form; control: MDA/vec. A general note: Immunoblotting shows a protein as a band on a membrane.

For integrin β1: MGAT3 overexpression, the localisation_or_trafficking result in data set [1] was “no change”. Moreover, the expression_or_secretion entry in data set [2] is “no change”.
